According to the supplement of paper PMC7125110:
± gives the standard error. Fewer inactive variants are shown than the library holds.

B1: glmS ribozyme (parent)
chain: AUAAAAGCGCCAGAACUACAGAAAUGUAGUUGACGAGGAGGAGGUUUAUCGAAUUUUCGGCGGAUGCCUCCAAA

What was measured:
Conditions in all cases: with glucosamine-6-phosphate
[1] = variants of: B1; test: self-cleavage kobs at 160 uM GlcN6P; higher = faster cleavage; RNA array
Method in brief: (§1)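 Weighted Michaelis–Menten fits across concentrations supplied kcat and KM, based on kobs from one- or two-exponential decay fits to normalised per-tile medians. The data came from barcoded ribozyme variants transcribed in situ by E. coli RNA polymerase on sequenced MiSeq chips and tracked at 37 °C by a hybridised Cy3 probe. Glucosamine-6-phosphate (40 μM to 10 mM) in HEPES/KCl/Mg(OAc)2 buffer was flowed in.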

[2] = variants of: B1; test: self-cleavage kobs at 640 uM GlcN6P; higher = faster cleavage; RNA array
Method in brief: as §1

[3] = variants of: B1; test: self-cleavage kobs at 10000 uM GlcN6P; higher = faster cleavage; RNA array
Method in brief: as §1

[4] = variants of: B1; test: self-cleavage kobs at 2500 uM GlcN6P; higher = faster cleavage; RNA array
Method in brief: as §1

| Variant | self-cleavage kobs at 160 uM GlcN6P [1] [s⁻¹] | self-cleavage kobs at 640 uM GlcN6P [2] [s⁻¹] | self-cleavage kobs at 10000 uM GlcN6P [3] [s⁻¹] | self-cleavage kobs at 2500 uM GlcN6P [4] [s⁻¹] |
| --- | --- | --- | --- | --- |
| A36U C61U A64G | < 1e-05 | < 1e-05 | – | – |
| A42U A53G A64C | < 1e-05 | < 1e-05 | – | – |
| G35A A42C | < 1e-05 | < 1e-05 | < 1e-05 | – |
| G40A G51U | < 1e-05 | < 1e-05 | – | – |
| G43C U49G | < 1e-05 | < 1e-05 | < 1e-05 | < 1e-05 |
| G37C G44A U49A C68U | < 1e-05 | – | – | < 1e-05 |
| G32C G51A C61G | < 1e-05 | – | – | – |
| C34A U45A C70U | < 1e-05 | < 1e-05 | – | < 1e-05 |
| G38U G44U C50A A64U | < 1e-05 | – | – | – |
| A42U U47A C70G | < 1e-05 | < 1e-05 | – | – |
| A33U G37U G43A | < 1e-05 | – | – | – |
| G35A U56G A64G | < 1e-05 | – | < 1e-05 | < 1e-05 |
| G35U A64G | < 1e-05 | < 1e-05 | – | < 1e-05 |
| G32C A64G | < 1e-05 | – | – | 5.42e-05 ± 1.9e-05 |
| G32C G60U | < 1e-05 | < 1e-05 | < 1e-05 | < 1e-05 |
| C34A C67G C68A | 6.53e-05 ± 1.9e-05 | 6.33e-05 ± 2e-05 | – | 0.000284 ± 8.7e-05 |
| G35A U54G | < 1e-05 | < 1e-05 | – | < 1e-05 |
| G40U G60A C70A | < 1e-05 | – | – | < 1e-05 |
| G35A C70G | < 1e-05 | < 1e-05 | – | – |
| G41U G43U G51U | < 1e-05 | – | – | < 1e-05 |
| A36C G59A C71G | < 1e-05 | – | < 1e-05 | – |
| A36U G41C | < 1e-05 | – | < 1e-05 | < 1e-05 |
| A39C G63C | < 1e-05 | < 1e-05 | < 1e-05 | < 1e-05 |
| A33U G43C | < 1e-05 | < 1e-05 | – | < 1e-05 |
| G32U G51U G66A | < 1e-05 | < 1e-05 | – | – |

| Variant | self-cleavage kobs at 160 uM GlcN6P [1] [s⁻¹] | self-cleavage kobs at 640 uM GlcN6P [2] [s⁻¹] | self-cleavage kobs at 10000 uM GlcN6P [3] [s⁻¹] | self-cleavage kobs at 2500 uM GlcN6P [4] [s⁻¹] |
| --- | --- | --- | --- | --- |
| C34U C70U | < 1e-05 | < 1e-05 | – | – |
| A33U A53U U69G | 3.89e-05 ± 1.8e-05 | 0.000215 ± 7.6e-05 | – | 5.61e-05 ± 2.6e-05 |
| C34G G40C A48G U49G C71U | < 1e-05 | < 1e-05 | < 1e-05 | < 1e-05 |
| G37A G43U U47C A52C A64U | < 1e-05 | < 1e-05 | – | < 1e-05 |
| G43A A48C | < 1e-05 | < 1e-05 | < 1e-05 | – |
| G38U A39G G41C A42U U57C | < 1e-05 | – | – | – |
| G37A A48G A52G G62A | < 1e-05 | – | – | – |
| C34G U49G A53G G63C | < 1e-05 | < 1e-05 | – | – |
| A33C G35A G51C | < 1e-05 | < 1e-05 | – | < 1e-05 |
| G40C G43U G66U | < 1e-05 | < 1e-05 | – | < 1e-05 |
| A39U G59U | < 1e-05 | < 1e-05 | 3.61e-05 ± 1.4e-05 | – |
| A36C G44C | < 1e-05 | – | < 1e-05 | < 1e-05 |
| G38U A42U U56G | < 1e-05 | < 1e-05 | < 1e-05 | – |
| A33G G44U | < 1e-05 | < 1e-05 | < 1e-05 | – |
| G35A U57A | < 1e-05 | < 1e-05 | < 1e-05 | < 1e-05 |
| G43U G59U G60A | < 1e-05 | – | – | < 1e-05 |
| G41A A53G | 0.000343 ± 7e-05 | 0.000842 ± 0.00015 | 0.00427 ± 0.00084 | 0.00129 ± 0.00028 |
| A42C U54G | < 1e-05 | – | – | – |
| A36G U57G | < 1e-05 | < 1e-05 | < 1e-05 | < 1e-05 |
| A39U G44C A64U | < 1e-05 | < 1e-05 | – | – |
| A33C A42U U46C U54G | < 1e-05 | – | – | < 1e-05 |
| A42C U54C A64G C68A | < 1e-05 | < 1e-05 | < 1e-05 | < 1e-05 |
| A39G G62U | < 1e-05 | < 1e-05 | – | < 1e-05 |
| G32U G44U U47G A64C | < 1e-05 | – | – | < 1e-05 |
| G35A A39C | < 1e-05 | < 1e-05 | < 1e-05 | < 1e-05 |

| Variant | self-cleavage kobs at 160 uM GlcN6P [1] [s⁻¹] | self-cleavage kobs at 640 uM GlcN6P [2] [s⁻¹] | self-cleavage kobs at 10000 uM GlcN6P [3] [s⁻¹] | self-cleavage kobs at 2500 uM GlcN6P [4] [s⁻¹] |
| --- | --- | --- | --- | --- |
| A42U G44C A52C | < 1e-05 | < 1e-05 | – | – |
| G41U C58U | < 1e-05 | < 1e-05 | – | – |
| G43A C58U | < 1e-05 | < 1e-05 | < 1e-05 | – |
| A42G C61A C67A | 0.000467 ± 0.00018 | – | – | – |
| G35C G62U C67G C70U | < 1e-05 | – | – | – |
| G37U A48C C68U | < 1e-05 | < 1e-05 | – | – |
| A36G G44A U55C U65G | < 1e-05 | < 1e-05 | – | < 1e-05 |
| C34G A53G C68G | 0.000101 ± 2.4e-05 | 0.000115 ± 2.5e-05 | – | 8.44e-05 ± 3.6e-05 |
| A42G U54A C67A | 0.000942 ± 0.00031 | 0.0023 ± 0.001 | – | 0.00449 ± 0.0011 |
| G38A G41C | < 1e-05 | < 1e-05 | < 1e-05 | < 1e-05 |
| A42C A64U | < 1e-05 | < 1e-05 | < 1e-05 | < 1e-05 |
| G32U C50G | 5.71e-05 ± 2e-05 | – | – | – |
| A39C G51A C61A | < 1e-05 | – | – | < 1e-05 |
| G35U A36U G37U G66U | < 1e-05 | – | – | – |
| A36C G38C G63A | < 1e-05 | – | – | – |
| G38C G41A G51U | < 1e-05 | – | – | < 1e-05 |
| A33G A42C | < 1e-05 | < 1e-05 | < 1e-05 | < 1e-05 |
| A39G G43A A48U G51C | < 1e-05 | < 1e-05 | – | < 1e-05 |
| A36G U45C | < 1e-05 | < 1e-05 | – | < 1e-05 |
| A39C G43C C67U | < 1e-05 | – | – | < 1e-05 |
| A42U U56G C61U | < 1e-05 | – | – | – |
| A39C U69A | < 1e-05 | < 1e-05 | – | – |
| G38C G60C C71G | < 1e-05 | < 1e-05 | – | – |
| C34A C61A | < 1e-05 | < 1e-05 | – | < 1e-05 |
| A39U A53G C71A | 0.000185 ± 3.5e-05 | – | 0.00323 ± 0.00089 | 0.00139 ± 0.00042 |

| Variant | self-cleavage kobs at 160 uM GlcN6P [1] [s⁻¹] | self-cleavage kobs at 640 uM GlcN6P [2] [s⁻¹] | self-cleavage kobs at 10000 uM GlcN6P [3] [s⁻¹] | self-cleavage kobs at 2500 uM GlcN6P [4] [s⁻¹] |
| --- | --- | --- | --- | --- |
| A39C C50G | < 1e-05 | < 1e-05 | – | – |
| A33C G62A G63A | < 1e-05 | – | – | < 1e-05 |
| C34A G44U A53C U55G | < 1e-05 | – | – | – |
| C34G A53U C68U | < 1e-05 | – | – | < 1e-05 |
| A36C U54C | < 1e-05 | – | < 1e-05 | – |
| C34A U47C A48C | < 1e-05 | – | – | – |
| A36C A39U U57C | < 1e-05 | – | – | – |
| A33U A48G | < 1e-05 | < 1e-05 | – | < 1e-05 |
| G32C A42G A64U | < 1e-05 | < 1e-05 | – | < 1e-05 |
| G35A U46G | < 1e-05 | < 1e-05 | – | < 1e-05 |
| A33G A53U | < 1e-05 | – | < 1e-05 | < 1e-05 |
| G38C G44A | < 1e-05 | < 1e-05 | < 1e-05 | – |
| C34U G40U C71U | < 1e-05 | – | – | < 1e-05 |
| G32C U46A C50A A52U | < 1e-05 | < 1e-05 | – | < 1e-05 |
| G38U C68A | 7.69e-05 ± 2.1e-05 | 0.000459 ± 0.00019 | – | 0.000238 ± 9.6e-05 |
| G35U G37C | < 1e-05 | < 1e-05 | – | < 1e-05 |
| A39C U65A C71G | < 1e-05 | < 1e-05 | – | < 1e-05 |
| G40A C68G | < 1e-05 | < 1e-05 | < 1e-05 | < 1e-05 |
| G38U C58U C68A | 7.38e-05 ± 3.4e-05 | 0.00022 ± 8.3e-05 | – | 6.21e-05 ± 3.1e-05 |
| A33C U46C U56C G59C | < 1e-05 | < 1e-05 | – | < 1e-05 |
| G37U A42C C50U C68G | < 1e-05 | < 1e-05 | – | < 1e-05 |
| A39C U47A C50A U56C | < 1e-05 | – | – | < 1e-05 |
| G35A C50A | < 1e-05 | < 1e-05 | – | < 1e-05 |
| A33U U69G | 5e-05 ± 2e-05 | 0.000237 ± 6.3e-05 | – | – |
